The supplement of paper PMC6757056
± gives the standard deviation of the averaged measurements.

B1: library; a variant is named by its letters at N, in order (parent)
chain: GCUGUCACCGGUGCUUGGUACGUUAUAUUCAGCCGGUCUGAUGAGUCUNNNNNNAGACGAAACAGC

Tests used:
(6R,S)-folinic acid [1] = variants of: B1; assay: FACS-Seq fitted mean relative fluorescence mCherry/BFP without ligand (log10 relative fluorescence); HEK293T overexpressing SLC46A1; higher = higher reporter protein expression; settings: without (6R,S)-folinic acid; ligand present: no
Method in brief: (§1)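 The ribozyme switch sat in an mCherry reporter, delivered by lentivirus into HEK293T libraries along with an EF1α-BFP marker. Enriched cells were incubated 48 h with or without ligand, sorted into 6 bins by mCherry/BFP, and bin genomic DNA was PCR-amplified, barcoded and MiSeq-sequenced. Fluorescence equals the fitted normal mean of the bin counts after normalization. Those log10(mCherry/BFP) means were scaled to five spiked-in control ribozymes.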

(6R,S)-folinic acid [2] = variants of: B1; assay: normalized RNA/DNA level without ligand (relative to sTRSVctl = 100) (log10 (% of sTRSVctl)); HEK293T overexpressing SLC46A1; higher = less ribozyme self-cleavage, higher mRNA level; settings: without (6R,S)-folinic acid; ligand present: no
Method: (§2)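 Hammerhead (sTRSV) ribozyme switch libraries with a ligand aptamer grafted on stem I and a randomized N4-6 loop II, cloned into the 3' UTR of mCherry and transiently transfected into HEK293T cells; RNA-Seq 72 h post transfection with ligand added 1 h before transfection; RNA read count / plasmid DNA read count normalized to the non-cleaving sTRSVctl (x100), log10; sequences with >100 DNA reads. FACS-Seq: lentiviral library sorted into 6 bins after 48 h ligand, log-normal fit mean of mCherry/BFP scaled to controls. Printed sequences are partial switch sequences.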

(6R,S)-folinic acid [3] = variants of: B1; assay: FACS-Seq fitted mean relative fluorescence mCherry/BFP with ligand (log10 relative fluorescence); HEK293T overexpressing SLC46A1; ligand concentration (+) FACS-Seq: 6 mM; higher = higher reporter protein expression; settings: with (6R,S)-folinic acid; ligand present: yes
Method in brief: as §1

(6R,S)-folinic acid [4] = variants of: B1; assay: normalized RNA/DNA level with ligand (relative to sTRSVctl = 100) (log10 (% of sTRSVctl)); HEK293T overexpressing SLC46A1; ligand concentration (+) RNA-Seq: 6 mM; higher = less ribozyme self-cleavage, higher mRNA level; settings: with (6R,S)-folinic acid; ligand present: yes
Method: as §2

Row | Variant | FACS-Seq fitted mean (log10) ((6R,S)-folinic acid [1]) | normalized RNA/DNA level without ligand (log10) ((6R,S)-folinic acid [2]) | FACS-Seq fitted mean (log10) ((6R,S)-folinic acid [3]) | normalized RNA/DNA level with ligand (log10) ((6R,S)-folinic acid [4])
1 | GCUGUCACCGGUGCUUGGUACGUUAUAUUCAGCCGGUCUGAUGAGUCUUAUAUGAGACGAAACAGC [UAUAUG] | 0.194 ± 0.045 | 1.75 ± 0.018 | 0.678 ± 0.12 | 1.97 ± 0.035
2 | GCUGUCACCGGUGCUUGGUACGUUAUAUUCAGCCGGUCUGAUGAGUCUUAUCAAAGACGAAACAGC [UAUCAA] | 0.142 ± 0.016 | 1.957 ± 0.019 | 0.277 ± 0.084 | 2 ± 0.053
3 | GCUGUCACCGGUGCUUGGUACGUUAUAUUCAGCCGGUCUGAUGAGUCUUAUCAGAGACGAAACAGC [UAUCAG] | 0.285 ± 0.25 | 1.84 ± 0.024 | 0.328 ± 0.29 | 1.95 ± 0.025
4 | GCUGUCACCGGUGCUUGGUACGUUAUAUUCAGCCGGUCUGAUGAGUCUUAUCAUAGACGAAACAGC [UAUCAU] | 0.312 ± 0.043 | 1.954 ± 0.0086 | -0.0472 ± 0.12 | 1.99 ± 0.041
5 | GCUGUCACCGGUGCUUGGUACGUUAUAUUCAGCCGGUCUGAUGAGUCUGAUGAAAGACGAAACAGC [GAUGAA] | 0.212 ± 0.041 | 1.966 ± 0.012 | 0.37 ± 0.0079 | 1.989 ± 0.017
6 | GCUGUCACCGGUGCUUGGUACGUUAUAUUCAGCCGGUCUGAUGAGUCUGAUGACAGACGAAACAGC [GAUGAC] | 0.579 ± 0.11 | 1.95 ± 0.025 | 0.593 ± 0.085 | 2.01 ± 0.043
7 | GCUGUCACCGGUGCUUGGUACGUUAUAUUCAGCCGGUCUGAUGAGUCUCAUCGCAGACGAAACAGC [CAUCGC] | 0.37 ± 0.072 | 2.019 ± 0.0067 | 0.228 ± 0.031 | 1.99 ± 0.041
8 | GCUGUCACCGGUGCUUGGUACGUUAUAUUCAGCCGGUCUGAUGAGUCUCAUCUCAGACGAAACAGC [CAUCUC] | 0.717 ± 0.072 | 2.111 ± 0.017 | 0.619 ± 0.56 | 2.08 ± 0.072
9 | GCUGUCACCGGUGCUUGGUACGUUAUAUUCAGCCGGUCUGAUGAGUCUAAUCUAAGACGAAACAGC [AAUCUA] | 0.267 ± 0.13 | 1.99 ± 0.013 | 0.439 ± 0.27 | 2.014 ± 0.013
10 | GCUGUCACCGGUGCUUGGUACGUUAUAUUCAGCCGGUCUGAUGAGUCUAAUCUUAGACGAAACAGC [AAUCUU] | 0.524 ± 0.12 | 2.002 ± 0.013 | 0.276 ± 0.024 | 2.013 ± 0.017
